# Assay results reported in patent US20070258988A1 (SLOAN KETTERING INSTITUTE FOR CANCER RESEARCH, published 2007).
# T1: rMOR-1A (rat)
# T1 chain: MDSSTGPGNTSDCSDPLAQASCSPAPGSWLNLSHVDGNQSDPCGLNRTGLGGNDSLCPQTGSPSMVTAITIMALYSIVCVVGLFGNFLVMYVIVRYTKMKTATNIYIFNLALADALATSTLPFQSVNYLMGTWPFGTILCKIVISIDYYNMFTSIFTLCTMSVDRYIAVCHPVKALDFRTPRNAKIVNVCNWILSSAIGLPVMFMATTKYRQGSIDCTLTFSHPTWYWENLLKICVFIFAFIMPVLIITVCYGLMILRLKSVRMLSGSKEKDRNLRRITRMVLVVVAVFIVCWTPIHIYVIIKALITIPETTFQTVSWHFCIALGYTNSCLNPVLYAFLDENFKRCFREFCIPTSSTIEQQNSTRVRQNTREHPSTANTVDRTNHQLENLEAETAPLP
# What was measured:
# [1] = molecular target: T1, rMOR-1A; test: cell-based or functional assay
# [2] = molecular target: rMOR-1 (rat, UniProt P33535 1-398); test: cell-based or functional assay
# [3] = molecular target: rMOR-1D (rat); test: cell-based or functional assay
# [4] = molecular target: rMOR-1C1 (rat); test: cell-based or functional assay
# [5] = molecular target: T2, rMOR-1 (no Exon 4) (rat, UniProt P33535 1-386, limits assumed); test: cell-based or functional assay
# [6] = molecular target: hMOR-1B4 (human, UniProt P35372 1-388); test: cell-based or functional assay
# [7] = molecular target: hMOR-1A (human); test: cell-based or functional assay
# [8] = molecular target: hMOR-1B3 (human, UniProt P35372 1-388); test: cell-based or functional assay
# [9] = molecular target: hMOR-1Y (human, UniProt P35372 1-388); test: cell-based or functional assay
# [10] = molecular target: hMOR-1B2 (human, UniProt P35372 1-388); test: cell-based or functional assay
# [11] = molecular target: hMOR-1 (human, UniProt P35372 1-400); test: cell-based or functional assay
# [12] = molecular target: hMOR-1 (exons 1-3) (human, UniProt P35372 1-388); test: cell-based or functional assay
# [13] = molecular target: hMOR-1B5 (human, UniProt P35372 1-388); test: cell-based or functional assay
# [14] = molecular target: hMOR-1B1 (human, UniProt P35372 1-388); test: cell-based or functional assay
# [15] = molecular target: T1, rMOR-1A; test: competition against [3H]DAMGO (~1 nM), membranes of stable CHO transfectants
# Experimental: (§1) ANOVA was performed, followed by Tukey's post hoc analysis. Results are the mean ±S.E. of at least three independent determinations.
# [16] = molecular target: T3, rMOR-1D (rat); test: as above
# T3 construct: whole, on cells
# Experimental: as §1
# [17] = molecular target: T4, rMOR-1C1 (rat); test: as above
# T4 construct: whole, on cells
# Experimental: as §1
# [18] = molecular target: T2, rMOR-1 (no Exon 4); test: as above
# Experimental: as §1
binder,measurement,setting,value
"YGGFMTSEKSQTPLVTLFKNAIIKNAYKKGE (peptide, UniProt P01189 237-267, looked up, also called B-Endorphin) [β-Endorphin]",Max Stim (%),[1],177%
same,"EC50 (nM), stimulation of [35S]GTPγS binding",[2],4 nM
same,Max Stim (%),[2],246%
same,"EC50 (nM), stimulation of [35S]GTPγS binding",[3],91 nM
same,Max Stim (%),[3],165%
same,Max Stim (%),[4],361%
same,"EC50 (nM), stimulation of [35S]GTPγS binding",[5],90 nM
same,Max Stim (%),[5],240%
same,Max Inhib (%),[6],69%
same,Max Inhib (%),[7],73%
same,Max Inhib (%),[8],73%
same,Max Inhib (%),[9],90%
same,Max Inhib (%),[10],65%
same,Max Inhib (%),[11],79%
same,Max Inhib (%),[12],73%
same,Max Inhib (%),[13],69%
same,Max Inhib (%),[14],65%
same,Ki,[15],10.5 nM
same,Ki,[16],8.5 nM
same,Ki,[17],8.8 nM
same,Ki,[18],10 nM
